Numbered stars: 1 amine (or outer) side, 2 acyl side, 3 side chain; on linkers, the order of the positions; unused ones are H or OH. Bridge positions count the residues as written; N and C are the ends. Side chains are listed from the residue outwards. Ends that are not written are not given here. * marks the point of attachment. C20 diacid = O=C(O)CCCCCCCCCCCCCCCCCCC(=O)*; γGlu = O=C(O)[C@H](CCC(=O)[*:2])N[*:1]; AEEA = NCCOCCOCC(=O)O
T1: human calcitonin receptor (human, UniProt P30988 25-474)
T1 sequence (looked up): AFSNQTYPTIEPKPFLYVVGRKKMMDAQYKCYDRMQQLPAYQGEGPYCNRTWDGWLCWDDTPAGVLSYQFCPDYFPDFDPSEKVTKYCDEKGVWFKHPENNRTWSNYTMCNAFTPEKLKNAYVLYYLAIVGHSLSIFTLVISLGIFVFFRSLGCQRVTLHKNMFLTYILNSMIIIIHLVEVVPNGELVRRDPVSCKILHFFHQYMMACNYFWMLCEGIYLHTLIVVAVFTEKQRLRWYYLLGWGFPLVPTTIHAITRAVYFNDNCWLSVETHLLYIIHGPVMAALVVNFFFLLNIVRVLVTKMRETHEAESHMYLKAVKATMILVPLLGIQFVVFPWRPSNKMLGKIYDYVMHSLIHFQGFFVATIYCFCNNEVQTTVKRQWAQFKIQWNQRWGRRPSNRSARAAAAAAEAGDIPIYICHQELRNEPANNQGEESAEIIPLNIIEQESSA

B1: N^ε1-[2-[2-[2-[[(4S)-4-carboxy-4-(19-carboxynonadecanoylamino)butanoyl]amino]ethoxy]ethoxy]acetyl]-[Arg17,Pro21,Pro27]-h-amylin (peptide)
peptide: K([AEEA-γGlu-C20 diacid])CNTATCATQRLANFLRHSSPNFGAIPSSTNVGSNTY-NH2
modifications: disulfide 2-7; N-terminus assumed
SMILES: CC[C@H](C)[C@H](NC(=O)[C@H](C)NC(=O)CNC(=O)[C@H](Cc1ccccc1)NC(=O)[C@H](CC(N)=O)NC(=O)[C@@H]1CCCN1C(=O)[C@H](CO)NC(=O)[C@H](CO)NC(=O)[C@H](Cc1c[nH]cn1)NC(=O)[C@H](CCCNC(=N)N)NC(=O)[C@H](CC(C)C)NC(=O)[C@H](Cc1ccccc1)NC(=O)[C@H](CC(N)=O)NC(=O)[C@H](C)NC(=O)[C@H](CC(C)C)NC(=O)[C@H](CCCNC(=N)N)NC(=O)[C@H](CCC(N)=O)NC(=O)[C@@H](NC(=O)[C@H](C)NC(=O)[C@@H]1CSSC[C@H](NC(=O)[C@@H](N)CCCCNC(=O)COCCOCCNC(=O)CC[C@H](NC(=O)CCCCCCCCCCCCCCCCCCC(=O)O)C(=O)O)C(=O)N[C@@H](CC(N)=O)C(=O)N[C@@H]([C@@H](C)O)C(=O)N[C@@H](C)C(=O)N[C@@H]([C@@H](C)O)C(=O)N1)[C@@H](C)O)C(=O)N1CCC[C@H]1C(=O)N[C@@H](CO)C(=O)N[C@@H](CO)C(=O)N[C@H](C(=O)N[C@@H](CC(N)=O)C(=O)N[C@H](C(=O)NCC(=O)N[C@@H](CO)C(=O)N[C@@H](CC(N)=O)C(=O)N[C@H](C(=O)N[C@@H](Cc1ccc(O)cc1)C(N)=O)[C@@H](C)O)C(C)C)[C@@H](C)O
notes: analogue of human amylin; also called compound 41
B2: N^ε1-[(4S)-4-carboxy-4-(19-carboxynonadecanoylamino)butanoyl]-[His14,Arg17,Pro21,Pro27,Pro31]-h-amylin (peptide)
peptide: K([γGlu-C20 diacid])CNTATCATQRLAHFLRHSSPNFGAIPSSTPVGSNTY-NH2
modifications: disulfide 2-7; N-terminus assumed
SMILES: CC[C@H](C)[C@H](NC(=O)[C@H](C)NC(=O)CNC(=O)[C@H](Cc1ccccc1)NC(=O)[C@H](CC(N)=O)NC(=O)[C@@H]1CCCN1C(=O)[C@H](CO)NC(=O)[C@H](CO)NC(=O)[C@H](Cc1c[nH]cn1)NC(=O)[C@H](CCCNC(=N)N)NC(=O)[C@H](CC(C)C)NC(=O)[C@H](Cc1ccccc1)NC(=O)[C@H](Cc1c[nH]cn1)NC(=O)[C@H](C)NC(=O)[C@H](CC(C)C)NC(=O)[C@H](CCCNC(=N)N)NC(=O)[C@H](CCC(N)=O)NC(=O)[C@@H](NC(=O)[C@H](C)NC(=O)[C@@H]1CSSC[C@H](NC(=O)[C@@H](N)CCCCNC(=O)CC[C@H](NC(=O)CCCCCCCCCCCCCCCCCCC(=O)O)C(=O)O)C(=O)N[C@@H](CC(N)=O)C(=O)N[C@@H]([C@@H](C)O)C(=O)N[C@@H](C)C(=O)N[C@@H]([C@@H](C)O)C(=O)N1)[C@@H](C)O)C(=O)N1CCC[C@H]1C(=O)N[C@@H](CO)C(=O)N[C@@H](CO)C(=O)N[C@H](C(=O)N1CCC[C@H]1C(=O)N[C@H](C(=O)NCC(=O)N[C@@H](CO)C(=O)N[C@@H](CC(N)=O)C(=O)N[C@H](C(=O)N[C@@H](Cc1ccc(O)cc1)C(N)=O)[C@@H](C)O)C(C)C)[C@@H](C)O
notes: analogue of human amylin; also called compound 62
B3: N^ε1-[(4S)-4-carboxy-4-(19-carboxynonadecanoylamino)butanoyl]-[His14,Arg17,Pro21,Pro27]-h-amylin (peptide)
peptide: K([γGlu-C20 diacid])CNTATCATQRLAHFLRHSSPNFGAIPSSTNVGSNTY-NH2
modifications: disulfide 2-7; N-terminus assumed
SMILES: CC[C@H](C)[C@H](NC(=O)[C@H](C)NC(=O)CNC(=O)[C@H](Cc1ccccc1)NC(=O)[C@H](CC(N)=O)NC(=O)[C@@H]1CCCN1C(=O)[C@H](CO)NC(=O)[C@H](CO)NC(=O)[C@H](Cc1c[nH]cn1)NC(=O)[C@H](CCCNC(=N)N)NC(=O)[C@H](CC(C)C)NC(=O)[C@H](Cc1ccccc1)NC(=O)[C@H](Cc1c[nH]cn1)NC(=O)[C@H](C)NC(=O)[C@H](CC(C)C)NC(=O)[C@H](CCCNC(=N)N)NC(=O)[C@H](CCC(N)=O)NC(=O)[C@@H](NC(=O)[C@H](C)NC(=O)[C@@H]1CSSC[C@H](NC(=O)[C@@H](N)CCCCNC(=O)CC[C@H](NC(=O)CCCCCCCCCCCCCCCCCCC(=O)O)C(=O)O)C(=O)N[C@@H](CC(N)=O)C(=O)N[C@@H]([C@@H](C)O)C(=O)N[C@@H](C)C(=O)N[C@@H]([C@@H](C)O)C(=O)N1)[C@@H](C)O)C(=O)N1CCC[C@H]1C(=O)N[C@@H](CO)C(=O)N[C@@H](CO)C(=O)N[C@H](C(=O)N[C@@H](CC(N)=O)C(=O)N[C@H](C(=O)NCC(=O)N[C@@H](CO)C(=O)N[C@@H](CC(N)=O)C(=O)N[C@H](C(=O)N[C@@H](Cc1ccc(O)cc1)C(N)=O)[C@@H](C)O)C(C)C)[C@@H](C)O
notes: analogue of human amylin; also called compound 70
B4: N^ε1-[(4S)-4-carboxy-4-[[(4S)-4-carboxy-4-(19-carboxynonadecanoylamino)butanoyl]amino]butanoyl]-[Asp14,Arg17,Pro21,Pro27,Arg35]-h-amylin (peptide)
peptide: K([γGlu-γGlu-C20 diacid])CNTATCATQRLADFLRHSSPNFGAIPSSTNVGSRTY-NH2
modifications: disulfide 2-7; N-terminus assumed
SMILES: CC[C@H](C)[C@H](NC(=O)[C@H](C)NC(=O)CNC(=O)[C@H](Cc1ccccc1)NC(=O)[C@H](CC(N)=O)NC(=O)[C@@H]1CCCN1C(=O)[C@H](CO)NC(=O)[C@H](CO)NC(=O)[C@H](Cc1c[nH]cn1)NC(=O)[C@H](CCCNC(=N)N)NC(=O)[C@H](CC(C)C)NC(=O)[C@H](Cc1ccccc1)NC(=O)[C@H](CC(=O)O)NC(=O)[C@H](C)NC(=O)[C@H](CC(C)C)NC(=O)[C@H](CCCNC(=N)N)NC(=O)[C@H](CCC(N)=O)NC(=O)[C@@H](NC(=O)[C@H](C)NC(=O)[C@@H]1CSSC[C@H](NC(=O)[C@@H](N)CCCCNC(=O)CC[C@H](NC(=O)CC[C@H](NC(=O)CCCCCCCCCCCCCCCCCCC(=O)O)C(=O)O)C(=O)O)C(=O)N[C@@H](CC(N)=O)C(=O)N[C@@H]([C@@H](C)O)C(=O)N[C@@H](C)C(=O)N[C@@H]([C@@H](C)O)C(=O)N1)[C@@H](C)O)C(=O)N1CCC[C@H]1C(=O)N[C@@H](CO)C(=O)N[C@@H](CO)C(=O)N[C@H](C(=O)N[C@@H](CC(N)=O)C(=O)N[C@H](C(=O)NCC(=O)N[C@@H](CO)C(=O)N[C@@H](CCCNC(=N)N)C(=O)N[C@H](C(=O)N[C@@H](Cc1ccc(O)cc1)C(N)=O)[C@@H](C)O)C(C)C)[C@@H](C)O
notes: analogue of human amylin; also called compound 52
B5: N^ε1-[(4S)-4-carboxy-4-[[(4S)-4-carboxy-4-(19-carboxynonadecanoylamino)butanoyl]amino]butanoyl]-[Asp14,Arg17,Pro21,Pro27,Asp35]-h-amylin (peptide)
peptide: K([γGlu-γGlu-C20 diacid])CNTATCATQRLADFLRHSSPNFGAIPSSTNVGSDTY-NH2
modifications: disulfide 2-7; N-terminus assumed
SMILES: CC[C@H](C)[C@H](NC(=O)[C@H](C)NC(=O)CNC(=O)[C@H](Cc1ccccc1)NC(=O)[C@H](CC(N)=O)NC(=O)[C@@H]1CCCN1C(=O)[C@H](CO)NC(=O)[C@H](CO)NC(=O)[C@H](Cc1c[nH]cn1)NC(=O)[C@H](CCCNC(=N)N)NC(=O)[C@H](CC(C)C)NC(=O)[C@H](Cc1ccccc1)NC(=O)[C@H](CC(=O)O)NC(=O)[C@H](C)NC(=O)[C@H](CC(C)C)NC(=O)[C@H](CCCNC(=N)N)NC(=O)[C@H](CCC(N)=O)NC(=O)[C@@H](NC(=O)[C@H](C)NC(=O)[C@@H]1CSSC[C@H](NC(=O)[C@@H](N)CCCCNC(=O)CC[C@H](NC(=O)CC[C@H](NC(=O)CCCCCCCCCCCCCCCCCCC(=O)O)C(=O)O)C(=O)O)C(=O)N[C@@H](CC(N)=O)C(=O)N[C@@H]([C@@H](C)O)C(=O)N[C@@H](C)C(=O)N[C@@H]([C@@H](C)O)C(=O)N1)[C@@H](C)O)C(=O)N1CCC[C@H]1C(=O)N[C@@H](CO)C(=O)N[C@@H](CO)C(=O)N[C@H](C(=O)N[C@@H](CC(N)=O)C(=O)N[C@H](C(=O)NCC(=O)N[C@@H](CO)C(=O)N[C@@H](CC(=O)O)C(=O)N[C@H](C(=O)N[C@@H](Cc1ccc(O)cc1)C(N)=O)[C@@H](C)O)C(C)C)[C@@H](C)O
notes: analogue of human amylin; also called compound 2
B6: N^ε1-[(4S)-4-carboxy-4-[[(4S)-4-carboxy-4-(19-carboxynonadecanoylamino)butanoyl]amino]butanoyl]-[Asp14,Arg17,Pro21,Pro26,Asp35]-h-amylin (peptide)
peptide: K([γGlu-γGlu-C20 diacid])CNTATCATQRLADFLRHSSPNFGAPLSSTNVGSDTY-NH2
modifications: disulfide 2-7; N-terminus assumed
SMILES: CC(C)C[C@H](NC(=O)[C@H](CCCNC(=N)N)NC(=O)[C@H](CCC(N)=O)NC(=O)[C@@H](NC(=O)[C@H](C)NC(=O)[C@@H]1CSSC[C@H](NC(=O)[C@@H](N)CCCCNC(=O)CC[C@H](NC(=O)CC[C@H](NC(=O)CCCCCCCCCCCCCCCCCCC(=O)O)C(=O)O)C(=O)O)C(=O)N[C@@H](CC(N)=O)C(=O)N[C@@H]([C@@H](C)O)C(=O)N[C@@H](C)C(=O)N[C@@H]([C@@H](C)O)C(=O)N1)[C@@H](C)O)C(=O)N[C@@H](C)C(=O)N[C@@H](CC(=O)O)C(=O)N[C@@H](Cc1ccccc1)C(=O)N[C@@H](CC(C)C)C(=O)N[C@@H](CCCNC(=N)N)C(=O)N[C@@H](Cc1c[nH]cn1)C(=O)N[C@@H](CO)C(=O)N[C@@H](CO)C(=O)N1CCC[C@H]1C(=O)N[C@@H](CC(N)=O)C(=O)N[C@@H](Cc1ccccc1)C(=O)NCC(=O)N[C@@H](C)C(=O)N1CCC[C@H]1C(=O)N[C@@H](CC(C)C)C(=O)N[C@@H](CO)C(=O)N[C@@H](CO)C(=O)N[C@H](C(=O)N[C@@H](CC(N)=O)C(=O)N[C@H](C(=O)NCC(=O)N[C@@H](CO)C(=O)N[C@@H](CC(=O)O)C(=O)N[C@H](C(=O)N[C@@H](Cc1ccc(O)cc1)C(N)=O)[C@@H](C)O)C(C)C)[C@@H](C)O
notes: analogue of human amylin; also called compound 1

target: T1, human calcitonin receptor; test: cell-based or functional assay

hCTR funct. EC50	Ratio hCT/hAmylin funct.	Binder
4.35 nM		B1
0.539 nM		B2
0.715 nM		B3
14.1 nM		B4
3 nM		B5
2.7 nM	12	B6
